Tests used:
Test in all cases: quantitative Coomassie blue staining of the co-purified complex; KIF5-mScarlet-StrepII and His-FLAG-KLC1 co-expressed in Sf9, purified on Streptactin XT and by SEC
Conditions in all cases: partners not purified
[1] = target: T1, full-length human KIF5A-mScarlet-StrepII (human, UniProt Q12840 1-1032)
T1 construct: kinesin heavy chain KIF5A, human, cDNA BC146670, full length; 2x Prescission protease sites lie between KIF5A and mScarlet; also called KIF5A dimer; KHC; source: Sf9 (baculovirus), purified (Streptactin XT, SEC); also co-expressed with KLC1 and co-purified; not shown: mScarlet, C-terminal, kept
T1 sequence (looked up): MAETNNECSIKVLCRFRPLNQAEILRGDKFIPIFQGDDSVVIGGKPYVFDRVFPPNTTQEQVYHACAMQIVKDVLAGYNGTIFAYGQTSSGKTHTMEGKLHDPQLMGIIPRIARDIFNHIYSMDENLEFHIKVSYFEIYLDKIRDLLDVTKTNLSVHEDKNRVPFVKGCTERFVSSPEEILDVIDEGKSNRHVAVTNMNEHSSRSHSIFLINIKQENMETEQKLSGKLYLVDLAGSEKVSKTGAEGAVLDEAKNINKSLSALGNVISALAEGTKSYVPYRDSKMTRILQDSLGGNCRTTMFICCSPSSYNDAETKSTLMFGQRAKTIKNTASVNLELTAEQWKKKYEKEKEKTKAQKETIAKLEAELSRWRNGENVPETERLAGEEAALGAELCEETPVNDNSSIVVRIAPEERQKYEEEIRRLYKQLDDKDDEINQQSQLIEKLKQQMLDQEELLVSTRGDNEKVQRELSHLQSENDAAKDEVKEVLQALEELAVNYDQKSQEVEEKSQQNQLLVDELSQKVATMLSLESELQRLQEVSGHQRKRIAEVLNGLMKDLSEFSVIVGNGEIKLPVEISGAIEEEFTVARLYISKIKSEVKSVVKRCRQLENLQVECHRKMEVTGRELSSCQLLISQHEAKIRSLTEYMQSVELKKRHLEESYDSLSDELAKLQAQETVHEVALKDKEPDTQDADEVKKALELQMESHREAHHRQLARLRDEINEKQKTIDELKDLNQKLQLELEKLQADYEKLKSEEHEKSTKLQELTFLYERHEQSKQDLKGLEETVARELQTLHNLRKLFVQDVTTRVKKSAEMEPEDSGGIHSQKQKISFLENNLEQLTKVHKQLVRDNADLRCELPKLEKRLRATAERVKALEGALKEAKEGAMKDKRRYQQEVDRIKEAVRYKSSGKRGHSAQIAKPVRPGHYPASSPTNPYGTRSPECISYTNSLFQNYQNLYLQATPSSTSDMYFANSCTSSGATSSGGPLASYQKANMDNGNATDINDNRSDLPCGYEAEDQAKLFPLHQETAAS

[2] = target: T2, full-length human KIF5B-mScarlet-StrepII (human, UniProt P33176 1-963)
T2 construct: kinesin heavy chain KIF5B, human, cDNA BC126281, full length (aa 1-963); 2x Prescission protease sites lie between KIF5B and mScarlet; also called KIF5B-WT; wild-type KIF5B; source: Sf9 (baculovirus), purified (Streptactin XT, SEC); also co-expressed with KLC1 and co-purified; not shown: mScarlet, C-terminal, kept
T2 sequence (looked up): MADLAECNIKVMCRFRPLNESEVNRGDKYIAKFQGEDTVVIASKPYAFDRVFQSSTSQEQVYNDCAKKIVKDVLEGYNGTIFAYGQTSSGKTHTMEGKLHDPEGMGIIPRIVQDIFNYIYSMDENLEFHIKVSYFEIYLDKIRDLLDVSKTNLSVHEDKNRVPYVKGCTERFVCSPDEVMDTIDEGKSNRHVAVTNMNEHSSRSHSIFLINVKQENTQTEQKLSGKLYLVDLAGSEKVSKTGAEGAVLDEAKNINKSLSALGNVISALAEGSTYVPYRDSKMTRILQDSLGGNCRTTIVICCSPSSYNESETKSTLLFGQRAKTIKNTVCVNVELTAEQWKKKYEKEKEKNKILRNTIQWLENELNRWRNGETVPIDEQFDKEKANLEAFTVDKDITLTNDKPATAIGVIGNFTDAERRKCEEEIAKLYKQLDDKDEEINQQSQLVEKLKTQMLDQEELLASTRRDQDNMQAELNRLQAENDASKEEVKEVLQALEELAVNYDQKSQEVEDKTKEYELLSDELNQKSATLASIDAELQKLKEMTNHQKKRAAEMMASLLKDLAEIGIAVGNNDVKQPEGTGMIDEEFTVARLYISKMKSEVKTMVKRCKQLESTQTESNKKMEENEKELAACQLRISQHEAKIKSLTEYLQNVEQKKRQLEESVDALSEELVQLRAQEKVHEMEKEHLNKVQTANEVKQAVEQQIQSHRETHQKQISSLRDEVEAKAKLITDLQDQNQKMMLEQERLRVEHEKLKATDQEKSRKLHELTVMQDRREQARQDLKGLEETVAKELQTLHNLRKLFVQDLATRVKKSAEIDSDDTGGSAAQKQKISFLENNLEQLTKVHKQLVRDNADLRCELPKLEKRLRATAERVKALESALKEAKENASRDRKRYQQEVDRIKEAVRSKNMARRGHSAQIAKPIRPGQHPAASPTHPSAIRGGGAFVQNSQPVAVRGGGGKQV

[3] = target: T3, full-length human KIF5C-mScarlet-StrepII (human, UniProt O60282 1-957)
T3 construct: kinesin heavy chain KIF5C, human, cDNA BC110287, full length; 2x Prescission protease sites lie between KIF5C and mScarlet; also called KHC; source: Sf9 (baculovirus), purified (Streptactin XT, SEC); also co-expressed with KLC1 and co-purified; not shown: mScarlet, C-terminal, kept
T3 sequence (looked up): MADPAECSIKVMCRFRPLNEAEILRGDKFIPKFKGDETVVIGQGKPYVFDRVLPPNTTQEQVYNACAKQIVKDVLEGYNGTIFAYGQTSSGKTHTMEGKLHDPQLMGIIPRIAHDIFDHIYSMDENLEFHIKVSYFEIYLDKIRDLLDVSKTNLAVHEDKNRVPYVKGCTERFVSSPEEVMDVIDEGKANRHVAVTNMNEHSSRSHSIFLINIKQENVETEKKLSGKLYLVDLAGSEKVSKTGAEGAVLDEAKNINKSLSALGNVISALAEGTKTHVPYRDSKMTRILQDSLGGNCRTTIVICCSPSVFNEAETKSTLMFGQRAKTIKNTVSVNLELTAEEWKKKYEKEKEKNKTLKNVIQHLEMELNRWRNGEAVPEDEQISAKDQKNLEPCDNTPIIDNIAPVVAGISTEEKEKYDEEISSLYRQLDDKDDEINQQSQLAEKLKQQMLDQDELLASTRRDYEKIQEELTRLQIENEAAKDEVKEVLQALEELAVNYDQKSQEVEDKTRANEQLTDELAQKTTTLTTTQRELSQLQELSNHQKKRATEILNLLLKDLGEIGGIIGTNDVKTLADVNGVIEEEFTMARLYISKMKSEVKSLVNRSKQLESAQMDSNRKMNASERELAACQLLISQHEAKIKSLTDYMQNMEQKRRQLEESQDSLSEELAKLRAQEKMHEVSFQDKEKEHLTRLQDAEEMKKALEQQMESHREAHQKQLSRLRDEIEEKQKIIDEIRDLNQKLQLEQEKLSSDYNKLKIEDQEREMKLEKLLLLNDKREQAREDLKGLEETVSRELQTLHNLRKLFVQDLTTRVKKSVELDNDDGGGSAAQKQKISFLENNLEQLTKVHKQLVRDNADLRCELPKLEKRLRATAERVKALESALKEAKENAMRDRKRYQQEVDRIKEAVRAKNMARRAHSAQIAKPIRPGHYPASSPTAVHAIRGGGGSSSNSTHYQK

Measured: stoichiometry N

B1: 6xHis-FLAG-human KLC1 (co-expressed with KIF5) (natural protein, UniProt Q07866 1-573, looked up)
chain: MYDNMSTMVYIKEDKLEKLTQDEIISKTKQVIQGLEALKNEHNSILQSLLETLKCLKKDDESNLVEEKSNMIRKSLEMLELGLSEAQVMMALSNHLNAVESEKQKLRAQVRRLCQENQWLRDELANTQQKLQKSEQSVAQLEEEKKHLEFMNQLKKYDDDISPSEDKDTDSTKEPLDDLFPNDEDDPGQGIQQQHSSAAAAAQQGGYEIPARLRTLHNLVIQYASQGRYEVAVPLCKQALEDLEKTSGHDHPDVATMLNILALVYRDQNKYKDAANLLNDALAIREKTLGKDHPAVAATLNNLAVLYGKRGKYKEAEPLCKRALEIREKVLGKDHPDVAKQLNNLALLCQNQGKYEEVEYYYQRALEIYQTKLGPDDPNVAKTKNNLASCYLKQGKFKQAETLYKEILTRAHEREFGSVDDENKPIWMHAEEREECKGKQKDGTSFGEYGGWYKACKVDSPTVTTTLKNLGALYRRQGKFEAAETLEEAAMRSRKQGLDNVHKQRVAEVLNDPENMEKRRSRESLNVDVVKYESGPDGGEEVSMSVEWNGGVSGRASFCGKRQQQQWPGRRHR
notes: kinesin light chain 1, human, cDNA BC008881; also called kinesin light chain; source: Sf9, co-expressed with KIF5 from a multi-gene baculovirus, co-purified (Streptactin XT, SEC)
~0.8 KLC1 per KHC: all assays above
